For this series the following is noted: Pseudomonas aeruginosa (strain ATCC 15692 / DSM 22644 / CIP 104116 / JCM 14847 / LMG 12228 / 1C / PRS 101 / PAO1), pH 7.5, GdnHCl, Fluorescence, Tris 1 mM, NaCl 1.93 M, reversible: Yes, whole UniProt chain shown.

Where “and” joins values, the source holds several entries; their conditions need not be identical. Equal values may be shown once.

B1: Azurin wild type, P00282 (protein)
chain: MLRKLAAVSLLSLLSAPLLAAECSVDIQGNDQMQFNTNAITVDKSCKQFTVNLSHPGNLPKNVMGHNWVLSTAADMQGVVTDGMASGLDKDYLKPDDSRVIAHTKLIGSGEKDSVTFDVSKLKEGEQYMFFCTFPGHSALMKGTLTLK
Turning to B1, the denaturant m value runs as follows: (20 °C) 5.53 kcal/mol/M; (-8 °C) 3.63 kcal/mol/M and 6.66 kcal/mol/M; (-10 °C) 3.77 kcal/mol/M; (-12 °C) 3.85 kcal/mol/M and 6.98 kcal/mol/M. The “denaturant midpoint (higher = more stable)” value reads like this: (20 °C) 1.74 M; (-8 °C) 1.79 M and 1.58 M; (-10 °C) 1.73 M; (-12 °C) 1.7 M and 1.5 M. Moreover, the unfolding free energy is, setting by setting: (20 °C) 9.63 kcal/mol; (-8 °C) 6.89 kcal/mol and 10.5 kcal/mol; (-10 °C) 6.83 kcal/mol; (-12 °C) 6.77 kcal/mol and 10.5 kcal/mol.

(Values after FireProtDB (doi:10.1529/biophysj.106.099531).)
